# Earlier results as cited in article PMC10170156.
# Biological target: EGFR (Homo sapiens) (UniProt P00533)
substance,measurement,value
EGF (from UniProt P01133),Kd,4 nM
